Assay results from the supplement of paper PMC7877785.
± gives the uncertainty stated by the source.

Experiment: self-splicing fitness, log relative to wild type (ln ratio); higher = more splicing; Tetrahymena group I intron in knt gene, E. coli kanamycin selection, DiMSum; sequences stand for … in CUCUCU…GGAGGGAAAAGUUAUCAGGCAUGCACCUGGUAGCUAGUCUUUAAACCAAUAGAUUGCAUCGGUUUAAAAGGCAAGACCGUCAAAUUGCGGGAAAGGGGUCAACAGCCGUUCAGUACCAAGUCUCAGGGGAAACUUUGAGAUGGCCUUGCAAAGGGUAUGGUAAUAAGCUGACGGACAUGGUCCUAACCACGCAGCCAAGUCCUAAGUCAACAGAUCUUCUGUUGAUAUGGAUGCAGUUCACAGACUAAAUGUCGGUCGGGGAAGAUGUAUUCUUCUCAUAAGAUAUAGUCGGACCUCUCCUUAAUGGGAGCUAGCGGAUGAAGUGAUGCAACACUGGAGCCGCUGGGAACUAAUUUGUAUGCGAAAGUAUAUUGAUUAGUUUUGGAGUACUCGUGGUCG
Method in brief: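 DiMSum derived fitness as the error-weighted combination of fold changes across replicates, kanamycin versus no kanamycin, normalised to wild type. E. coli BL21(DE3) held the library, which randomised all eight P1ex-region intron nucleotides within the knt kanamycin-resistance gene on pET-22b(+). Six replicate transformations grew overnight at 37°C or 30°C on LB agar with or without 25 μg/mL kanamycin, also containing 100 μg/mL carbenicillin, 50 μM IPTG and 0.2% rhamnose, and pooled colonies were amplicon-sequenced on an Illumina HiSeq 2500.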

Sequence	self-splicing fitness (ln) (30 °C)	self-splicing fitness (ln) (37 °C)
UCAAAGCAAUAUUACGUUGA	-3.43 ± 0.14	-2.66 ± 0.18
UCACAGCAAUAUUACGAAAU	-3.43 ± 0.37	-0.587 ± 0.16
UCACAGCAAUAUUACGACAU	-3.584 ± 0.02	-2.19 ± 0.034
UCACAGCAAUAUUACGACUG	-2.18 ± 0.098	-0.964 ± 0.12
UCACAGCAAUAUUACGAUAC	-3.87 ± 0.26	-2.75 ± 0.35
UCACAGCAAUAUUACGAUCG	-0.61 ± 0.08	-0.076 ± 0.11
UCACAGCAAUAUUACGCACG	-1.22 ± 0.091	-0.319 ± 0.14
UCACAGCAAUAUUACGCAUC	-4.21 ± 0.36	-3.04 ± 0.4
UCACAGCAAUAUUACGCCAU	-3.28 ± 0.19	-2.22 ± 0.18
UCACAGCAAUAUUACGCCCU	-3.66 ± 0.35	-0.688 ± 0.2
UCACAGCAAUAUUACGCCGA	-0.333 ± 0.1	0.184 ± 0.14
UCACAGCAAUAUUACGCCGG	-0.748 ± 0.13	0.108 ± 0.13
UCACAGCAAUAUUACGCCUU	-3.82 ± 0.37	-2.71 ± 0.41
UCACAGCAAUAUUACGCUCG	-1.15 ± 0.086	0.16 ± 0.1
UCACAGCAAUAUUACGCUGA	-2.76 ± 0.18	-1.54 ± 0.14
UCACAGCAAUAUUACGGACA	-1.22 ± 0.099	-0.687 ± 0.099
UCACAGCAAUAUUACGGAGA	-1.48 ± 0.1	-0.898 ± 0.11
UCACAGCAAUAUUACGGCUC	-2.9 ± 0.22	-1.87 ± 0.21
UCACAGCAAUAUUACGGGAA	-1.98 ± 0.1	-0.945 ± 0.089
UCACAGCAAUAUUACGGGGU	-3.58 ± 0.14	-2.67 ± 0.18

Sequence	self-splicing fitness (ln) (30 °C)	self-splicing fitness (ln) (37 °C)
UCACAGCAAUAUUACGGUCG	-0.0254 ± 0.054	0.119 ± 0.061
UCACAGCAAUAUUACGUACG	-0.786 ± 0.093	-0.747 ± 0.1
UCACAGCAAUAUUACGUCCA	-0.951 ± 0.14	-0.533 ± 0.14
UCACAGCAAUAUUACGUCGG	-1.43 ± 0.077	-0.796 ± 0.083
UCACAGCAAUAUUACGUCUC	-3.42 ± 0.25	-1.77 ± 0.2
UCACAGCAAUAUUACGUGAC	-3.26 ± 0.12	-2.5 ± 0.22
UCACAGCAAUAUUACGUUGA	-2.56 ± 0.11	-2.1 ± 0.11
UCAGAGCAAUAUUACGAAGG	-2.15 ± 0.085	-1.84 ± 0.12
UCAGAGCAAUAUUACGAAUU		-2.24 ± 0.37
UCAGAGCAAUAUUACGACCA	-2.73 ± 0.38	-2.63 ± 0.47
UCAGAGCAAUAUUACGACGA	-0.0796 ± 0.1	-0.26 ± 0.11
UCAGAGCAAUAUUACGACGC		-1.69 ± 0.4
UCAGAGCAAUAUUACGACGU	-1.87 ± 0.2	0.0812 ± 0.17
UCAGAGCAAUAUUACGAUUA	-1.18 ± 0.28	
UCAGAGCAAUAUUACGAUUU	-3.82 ± 0.3	-1.67 ± 0.22
UCAGAGCAAUAUUACGCCGG	-2.92 ± 0.24	
UCAGAGCAAUAUUACGCGUU	-4.72 ± 0.29	-2.78 ± 0.21
UCAGAGCAAUAUUACGGAGA	-2.08 ± 0.15	-1.93 ± 0.17
UCAGAGCAAUAUUACGGCAA	-2.43 ± 0.33	
UCAGAGCAAUAUUACGGGAC	-3.74 ± 0.29	-1.6 ± 0.33
